Numbering of substitutions follows the chain as printed.
T1: Recombinant human PSGL-1(ECD)-hFc1 (R&D Systems, Cat. 3345-PS) (human, UniProt Q14242 42-305)
T1 construct: Bought; Gln42-Val295 counted on AAC50061; also called PSGL-1-Fc; PSGL-1-hFc1 chimera; not shown: human IgG1 Fc, Pro100-Lys330
T1 sequence: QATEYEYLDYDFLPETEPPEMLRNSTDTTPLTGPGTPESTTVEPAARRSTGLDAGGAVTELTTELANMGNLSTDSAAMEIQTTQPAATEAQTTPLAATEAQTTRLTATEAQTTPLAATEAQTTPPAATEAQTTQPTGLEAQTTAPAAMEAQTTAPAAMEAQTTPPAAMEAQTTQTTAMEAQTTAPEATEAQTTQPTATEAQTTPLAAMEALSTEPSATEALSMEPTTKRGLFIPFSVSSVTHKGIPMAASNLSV

T2: Biotin PSGL-1(42-62) D52A peptide (C-terminal Lys-biotin)
T2 peptide: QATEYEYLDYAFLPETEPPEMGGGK

T3: Biotin PSGL-1(42-62) P55A peptide (C-terminal Lys-biotin)
T3 peptide: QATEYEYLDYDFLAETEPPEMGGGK

B1: 2E12 (antibody, V domains shown)
VH: QVQLQQSGAELARPGASVKLSCKASGYTFTNYGLNWVKQRTGQGLEWIGEIYPRSGNTYYNEKFKGKATLTADKSSSTAYMQLSSLTSEDSAVYFCATEGAYWGQGTLVTVSA
VL: DIVMTQTPLTLSVTIGQPASISCKSSQSLLHGNGKTYLNWLLQRPGQSPKLLIYLVSKLESGIPDRFSGSGSGTDFTLEISRVEAEDLGIYYCLQSTHFPRTFGGGTKLEIK
notes: Mouse hybridoma mAb; only variable domains given
B2: 43B6 (antibody, V domains shown)
VH: EVQLQQSGPDLVKPGALVKISCKASGYSFTAYYIHWVKQSHGKSLEWIGRVNPNTGGTSYNPKFKGKAILNVDKSSSTAYMELRSLTSEDSAVYYCARSGSPYYRYDDWGQGTTLTVSS
VL: ENVLTQSPAIMSASPGEKVTMTCRASSTVNSTYLHWFQQKSGASPKLWIYGSSNLASGVPARFSGSGSGTSYSLTISSVEAEDAATYYCQQYSGYPLTFGAGTTLELK
notes: Control anti-PSGL-1 mAb, recombinant; only variable domains given; also called 43B3
B3: 16L15 (antibody, V domains shown)
VH: DVKLVESGGGLVKLGGSLKLSCAASGFTFSSYYMSWVRQTPEKRLEWVATISNGGGSTYYPDSVKDRFTISRDNAKNTLYLQMSSLNSEDTAVYYCAKPLYYSNPWFAYWGQGTLVTVSA
VL: DVLLTQTPLSLPVSLGDQASISCRSSQSIVHSNGNTYLEWYLQKPGQSPKLLIYKVSNRFSGVPDRFSGSGSGTDFTLKISRVEAEDLGVYYCFQGSHVPRTFGGGTKLEIK
notes: From mouse immunisation; only variable domains given
B4: 9F9 (antibody, V domains shown)
VH: EVQLVETGGGLVQPKGSLKLSCAASGFTFNTNAMNWVRQAPGKGLEWVARIRSKSNNYATYYADSVKDRFTISRDDTQSMIYLQMNNLKTEDTGMYYCVRGGSYWYFDVWGAGTTVTVSS
VL: B3 VL with L4M, H31N, R101W
notes: Control anti-PSGL-1 mAb, recombinant; only variable domains given; also called 9F6
B5: 5E12 (antibody, V domains shown)
VH: EIQLQQSGAELVRPGASVKLSCTASGFNIKDDYIHWVKQRPEQGLEWIGRIDPANGNTKSAPKFQDKATITADTSSNTAYLHLSSLTSEDTAVYYCSIRFAYWGQGTLVTVSA
VL: DVVMTQTPLSLSVSLGDQASISCRSSQSLVYRNGDTYLHWFLQKPGQSPKLLIYKVSNRFSGVPDRFSGSGSGTDFTLKISRVEAEDLGIYFCSQNTHVPYTFGGGTKLEIK
notes: as for B1
B6: 19I01 (antibody, V domains shown)
VH: EVQLVESGGGLVKPGGSRKLSCAASGFTFSDYGMHWVRQAPEKGLEWVAYISSGSSTIYYADTVKGRFTISRDNAKNTLFLQMTSLRSEDTAMYYCARGVDGYWGQGTTLTVSS
VL: DVVMTQTPLSLPVSLGDQASISCRSSQSLVHSNGNTYLHWYLQKPGQSPKFLIYKVSNRFSGVPDRFSGSGSGTDFTLKISRVEAEDLGVYFCSQTTHVPLTFGAGTKLELK
notes: From mouse immunisation; only variable domains given; also called 19101
B7: 18F02 (antibody, V domains shown)
VH: QVQLQQPGAELVKPGASVKLSCKASGYTFTSYWMHWVKQRPGQGLEWIGMIHPNSGRTNYNEKFKSKATLTVDKSSSTAYMQLSSLTSEDSAVYYCARSDYWGQGTTLTVSS
VL: DIVMTQAAFSNPVTLGTSASISCRSSKSLLHSDGITYLYWFLQRPGQSPQLLIYRMSNLASGVPDRFSGSGSGTDFTLRISRVEAEDVGVYYCAQMLEFPRTFGGGTKLEIK
notes: as for B3
B8: 16E17 (antibody, V domains shown)
VH: QIQLVQSGPELKKPGETVKISCKASGYAFTTYGMSWVKQAPGKGLKWMGWINTYSGVPKYADDFKGRFAFSLETSASTAYLHINNLKNEDTATYFCGRHYYGSSYFDYWGQGTTLTVSS
VL: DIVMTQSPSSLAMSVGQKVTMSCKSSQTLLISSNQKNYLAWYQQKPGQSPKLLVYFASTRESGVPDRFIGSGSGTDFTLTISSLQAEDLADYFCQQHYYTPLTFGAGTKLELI
notes: as for B3
B9: 19L04 (antibody, IgG4, V domains shown)
VH: B8 VH with A28T, K59T, H82Q, N88I, G97A, S104H
VL: DIMMTQSPSSLAMSVGQKVTLRCKSSQSLLNSSNQKNYLAWYQQKPGQSPKLLVYFASTRESGVPVRFIGSGSGTDFTLTISSMQAEDLADYFCQQHYFSPLTFGAGTKLELK
notes: as for B3
B10: 19N05 (antibody, V domains shown)
VH: B8 VH with A28T, K59T, Y60F, H82Q, Y94F, G97A, H99N, S103N, S104H
VL: DVQITQSPSYLAASPGETISINCRASNNINKYLAWYQEKPGKTNKLLIYSGSTLQSGIPSRFSGSGSGTDFTLTISSLEPEDFAMYHCQQHNYYPLTFGAGTKLELK
notes: as for B3
B11: 18K07 (antibody, V domains shown)
VH: QIQLVQSGPELKKPGETVKISCEASGYTFTTYGMNWVKQAPGKGLKWMGWINTYSGVPTYADDFQGRFAFSVETSATTAYLQINNLKNEDAATYFCARSDDTYYGFAYWGQGTLVTVSA
VL: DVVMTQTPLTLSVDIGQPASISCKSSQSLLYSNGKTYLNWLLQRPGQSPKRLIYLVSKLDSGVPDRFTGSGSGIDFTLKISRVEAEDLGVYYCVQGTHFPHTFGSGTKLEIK
notes: as for B3
B12: 10F01 (antibody, IgG4, V domains shown)
VH: EVQLVQSGGGLVQPGGSLRLSCAASGFTFSSYAMSWVRQAPGKGLEWVSALRGGDGGTYHADSVKGRFTISGDSSKNTLYLQMNSLRAEDTAVYYCARRMVGAAYAFDIWGQGTMVTVSS
VL: LPVLTQPHSVSESPGKTVTISCTRSSGSIADNFVQWYRQRPGSAPTTVIYEGDQRPSGVPGRFSGSIDSSSNSASLTISGLQTDDEADYYCQSFDSYNRRTHVVFGGGTKLTVL

target: T1, Recombinant human PSGL-1(ECD)-hFc1 (R&D …); test: ELISA, plate-bound target

EC50 [nM] | Binder
0.6 | B1
0.05 | B2
0.96 | B3
0.06 | B4
0.51 | B5
1.23 | B6
0.57 | B7

target: T1, Recombinant human PSGL-1(ECD)-hFc1 (R&D …); test: Octet tandem; competitor 16E17
Protocol: (§1) Antibody binning was performed by ForteBio Octet® using a tandem assay format, with anti-human IgG biosensor-immobilized PSGL-1(ECD)-hFc1 protein, binding of competitor mAb followed by analyte antibody. As competition controls, the same antibody was competed against itself, and mAb competition was performed bidirectionally.
(§2) Antibody binning by tandem octet was performed by immobilizing 10 ug/mL PSGL-1(ECD)-hFc1 (R&D Systems, Cat. #3345-PS) in PBS, pH 7.4, onto anti-human IgG capture biosensors (ForteBio, Cat. #18-5060), binding of 100 nM competitor antibody for 300 sec., followed by binding of 100 nM of analyte mAb for 300 s in kinetic buffer (0.1% BSA in PBS containing 0.02% tween 20 and 0.05% sodium azide, pH 7.4). Synagis (Johnson et al. (1997) J. Infect. Dis. 176:1215-1224) served as a negative control mAb for competition. An Fc quench step (0.25 mg/mL human IgG Fcl; BioXcell, Cat. #BE0096, in kinetic buffer) was included when human mAbs were tested to prevent high background from the antibodies binding to the anti-human IgG biosensor. Biosensor regeneration buffer consisted of 10 mM glycine, pH 2.0.

% binding of analyte mAb [%] | Binder
16.3 | B8
61.9 | B9
29.1 | B10
11.7 | B11

target: T1, Recombinant human PSGL-1(ECD)-hFc1 (R&D …); test: Octet tandem; competitor 19L04
Protocol: as §1, §2

% binding of analyte mAb [%] | Binder
0 | B8
35.9 | B9
39.4 | B10
0 | B11

target: T1, Recombinant human PSGL-1(ECD)-hFc1 (R&D …); test: Octet tandem; competitor 20G13
Protocol: as §1, §2

% binding of analyte mAb [%] | Binder
32.4 | B8
0 | B9
0 | B10
0 | B11

target: PSGL-1(ECD)-hFc1 S116A protein (Sino Biological) (human); test: ELISA; against WT PSGL-1(ECD)-hFc1
Protocol: (§3) A typical ELISA experiment involved binding of a single concentration or serially diluted mAb in assay buffer (3% BSA in PBS containing 0.05% Tween®20, pH 7.4) onto BSA blocked high binding microtiter plate half-wells (Corning Cat. #3690), which contained PSGL-1 protein or streptavidin-immobilized biotin peptide. After incubation for 45 min. at 37° C., the plate was washed 3 times with wash buffer (PBS containing 0.05% Tween®20, pH 7.4), and an appropriate HRP-conjugated secondary antibody added (25 ul/well) (HRP goat anti-mouse or anti-human IgG). After 45 min. incubation at 37° C., the plate was washed and antibody bound to plate-immobilized target was determined at A450 nm using HRP substrate (3,3′5,5′-tetramethylbenzidine (TMB)). For each antibody, duplicate values were averaged and assay background subtracted.

EC50/EC50WTprot [fold] | Binder
1.45 | B8
1.44 | B9
1.43 | B10
1.02 | B11

target: PSGL-1(ECD)-hFc1 M119A protein (Sino Biological) (human); test: ELISA; against WT PSGL-1(ECD)-hFc1
Protocol: as §3

EC50/EC50WTprot [fold] | Binder
1.58 | B8
1.26 | B9
1.34 | B10
0.81 | B11

target: PSGL-1(ECD)-hFc1 I121A protein (Sino Biological) (human); test: ELISA; against WT PSGL-1(ECD)-hFc1
Protocol: as §3

EC50/EC50WTprot [fold] | Binder
2.8 | B8
1.42 | B9
1.39 | B10
0.89 | B11

target: T4, Human complement C4 protein (Millipore Sigma, Cat. 204886) (human, UniProt P0C0L4 20-675; P0C0L4 680-1446; P0C0L4 1454-1744, limits assumed, natural sulfotyrosines); test: ELISA, 50 nM mAb on plate-bound protein
T4 construct: mature
T4 sequence (P0C0L4 20-675 limits assumed, form in doubt, chain 1 of 3): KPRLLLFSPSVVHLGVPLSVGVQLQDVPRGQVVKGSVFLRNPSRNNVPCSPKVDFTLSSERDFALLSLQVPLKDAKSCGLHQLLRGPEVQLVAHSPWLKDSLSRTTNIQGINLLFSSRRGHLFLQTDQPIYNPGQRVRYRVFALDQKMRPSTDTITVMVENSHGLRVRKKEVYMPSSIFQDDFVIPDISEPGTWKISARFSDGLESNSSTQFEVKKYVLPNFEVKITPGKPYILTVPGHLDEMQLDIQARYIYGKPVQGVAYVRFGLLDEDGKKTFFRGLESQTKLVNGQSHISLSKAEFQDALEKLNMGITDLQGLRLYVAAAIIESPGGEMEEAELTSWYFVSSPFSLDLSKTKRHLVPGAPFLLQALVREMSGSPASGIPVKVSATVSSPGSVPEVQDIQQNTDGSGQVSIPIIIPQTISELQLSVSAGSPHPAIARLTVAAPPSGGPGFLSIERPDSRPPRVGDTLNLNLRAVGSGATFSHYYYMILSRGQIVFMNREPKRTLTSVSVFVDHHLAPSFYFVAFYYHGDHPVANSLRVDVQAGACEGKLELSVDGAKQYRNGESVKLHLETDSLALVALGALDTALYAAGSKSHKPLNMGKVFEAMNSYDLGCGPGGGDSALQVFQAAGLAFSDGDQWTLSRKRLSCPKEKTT
T4 sequence (P0C0L4 680-1446 limits assumed, form in doubt, chain 2 of 3): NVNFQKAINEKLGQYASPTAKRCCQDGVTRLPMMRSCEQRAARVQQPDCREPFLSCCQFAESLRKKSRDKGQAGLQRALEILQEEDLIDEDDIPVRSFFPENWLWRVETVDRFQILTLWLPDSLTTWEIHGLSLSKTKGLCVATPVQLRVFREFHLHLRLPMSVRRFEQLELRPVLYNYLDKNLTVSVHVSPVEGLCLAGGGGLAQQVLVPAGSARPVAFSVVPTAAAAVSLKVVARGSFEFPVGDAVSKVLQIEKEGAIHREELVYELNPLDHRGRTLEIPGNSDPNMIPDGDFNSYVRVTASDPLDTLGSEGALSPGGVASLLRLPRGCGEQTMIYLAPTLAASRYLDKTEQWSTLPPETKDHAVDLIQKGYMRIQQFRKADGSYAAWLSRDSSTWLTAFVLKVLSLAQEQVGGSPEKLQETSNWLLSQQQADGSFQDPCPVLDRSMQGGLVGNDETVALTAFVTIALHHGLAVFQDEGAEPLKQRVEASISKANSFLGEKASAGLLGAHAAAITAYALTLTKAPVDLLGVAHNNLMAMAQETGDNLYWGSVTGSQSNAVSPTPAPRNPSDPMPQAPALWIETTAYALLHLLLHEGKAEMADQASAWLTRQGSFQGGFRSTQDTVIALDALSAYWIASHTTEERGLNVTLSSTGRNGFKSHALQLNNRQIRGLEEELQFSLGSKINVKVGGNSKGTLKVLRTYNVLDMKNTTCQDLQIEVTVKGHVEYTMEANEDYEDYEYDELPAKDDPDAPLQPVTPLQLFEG
T4 sequence (P0C0L4 1454-1744 limits assumed, form in doubt, chain 3 of 3): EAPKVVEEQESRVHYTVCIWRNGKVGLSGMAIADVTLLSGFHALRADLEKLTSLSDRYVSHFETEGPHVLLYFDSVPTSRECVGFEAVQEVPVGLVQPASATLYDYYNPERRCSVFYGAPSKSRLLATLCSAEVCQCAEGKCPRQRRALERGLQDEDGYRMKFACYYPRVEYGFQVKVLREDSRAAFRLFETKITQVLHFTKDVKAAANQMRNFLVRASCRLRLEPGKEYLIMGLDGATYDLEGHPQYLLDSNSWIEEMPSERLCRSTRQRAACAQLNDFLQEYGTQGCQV
Protocol: Recombinant PSGL-1-hFc1 chimera protein consisting of PSGL-1's extracellular domain (ECD) served as a positive control. […] Primary antibody was added (25 ul per well) in duplicate at 50 nM in assay buffer (blocking buffer containing 0.05% Tween®20) into test and control (just blocked) wells and the plate incubated for 45 min at 37° C.

% of binding to PSGL-1(ECD)-hFc1 [%] | Binder
≤ 10 | B3
≤ 10 | B5
≤ 10 | B12
≤ 10 | B6
≤ 10 | B7

Target: T2, Biotin PSGL-1(42-62) D52A peptide
Test: ELISA, streptavidin-bound Ala peptide

binding result | EC50 [nM] | Binder
no binding |  | B2
 | 19.9 | B3
no binding |  | B4
 | 3.18 | B6
 | > 10 | B7

Target: T3, Biotin PSGL-1(42-62) P55A peptide
Test: ELISA, streptavidin-bound Ala peptide

EC50 [nM] | Binder
1.8 | B2
> 10 | B4
8.21 | B6

Target: T2, Biotin PSGL-1(42-62) D52A peptide
Test: ELISA; against wild-type PSGL-1 42-62

EC50Ala/EC50 wt [fold] | Binder
21 | B3
15.9 | B6
> 100 | B7

Target: T3, Biotin PSGL-1(42-62) P55A peptide
Test: ELISA; against wild-type PSGL-1 42-62

EC50Ala/EC50 wt [fold] | Binder
9.5 | B2
> 100 | B4
68.4 | B6

— patent US20220396632A1 (VERSEAU THERAPEUTICS, published 2022)
